Patent publication US20110008345A1 (GlaxoSmithKline, published 2011)

Legend:
[1] = molecular target: T1, recombinant E. coli-expressed human IL-13 (human, UniProt P35225 35-146); test: SPR
T1 construct: made and purified at GSK; also called Interleukin-13; rhIL-13

[2] = molecular target: T2, CD20 on CD20 positive cell line (Wein133) (UniProt P11836 1-297, limits assumed); test: flow cytometry, Wein133 cells
T2 construct: whole, on cells
T2 sequence (looked up): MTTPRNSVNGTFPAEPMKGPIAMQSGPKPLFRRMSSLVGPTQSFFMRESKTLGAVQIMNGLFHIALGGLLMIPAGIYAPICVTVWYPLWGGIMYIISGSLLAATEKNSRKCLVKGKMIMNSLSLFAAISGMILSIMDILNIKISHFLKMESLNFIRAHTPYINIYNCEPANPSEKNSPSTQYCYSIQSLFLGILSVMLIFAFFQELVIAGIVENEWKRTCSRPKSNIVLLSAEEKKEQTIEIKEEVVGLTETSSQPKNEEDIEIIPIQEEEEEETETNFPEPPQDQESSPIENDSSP

[3] = molecular target: T1, recombinant E. coli-expressed human …; test: SPR exp 1
[4] = molecular target: T1, recombinant E. coli-expressed human …; test: ELISA, IL-13 binding to IL13Ralpha2/Fc
[5] = molecular target: T3, recombinant E. coli-expressed cynomolgus IL-13 (cynomolgus, UniProt Q0PW92 21-132); test: SPR
T3 construct: also called cyno IL-13

[6] = molecular target: T4, recombinant E. coli-expressed cynomolgus IL-4 (cynomolgus, UniProt P79339 25-153); test: SPR
T4 construct: also called cyno IL-4
T4 sequence (looked up): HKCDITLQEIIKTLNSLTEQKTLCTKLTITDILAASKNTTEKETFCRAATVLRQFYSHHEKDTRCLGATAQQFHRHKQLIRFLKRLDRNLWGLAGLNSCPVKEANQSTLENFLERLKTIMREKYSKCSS

[7] = molecular target: T5, recombinant E. coli-expressed human IL-4 (human, UniProt P05112 25-153); test: SPR exp 2
T5 construct: made and purified at GSK; also called Interleukin-4; rhIL-4
T5 sequence: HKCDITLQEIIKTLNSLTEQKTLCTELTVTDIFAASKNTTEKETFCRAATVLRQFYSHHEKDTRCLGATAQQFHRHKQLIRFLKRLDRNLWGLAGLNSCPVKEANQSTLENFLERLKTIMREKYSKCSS

[8] = molecular target: T1, recombinant E. coli-expressed human …; test: SPR exp 2
[9] = molecular target: T5, recombinant E. coli-expressed human IL-4; test: cell-based or functional assay
[10] = molecular target: T3, recombinant E. coli-expressed …; test: cell-based or functional assay
[11] = molecular target: T4, recombinant E. coli-expressed …; test: cell-based or functional assay
[12] = molecular target: T1, recombinant E. coli-expressed human …; test: cell-based or functional assay
[13] = molecular target: T5, recombinant E. coli-expressed human IL-4; test: ELISA, supernatant
[14] = molecular target: T1, recombinant E. coli-expressed human …; test: ELISA, supernatant
recombinant human VEGF = molecular target: T6, recombinant human VEGF (human, UniProt P15692-4 27-191); test: ELISA
T6 construct: also called VEGF165; hVEGF165

[15] = molecular target: T7, Recombinant Human HGF R (c-MET)/Fc Chimera (human, UniProt P08581 25-932); test: ELISA
T7 construct: bought; also called HGF receptor
T7 sequence (P08581 25-932 limits assumed, change not shown): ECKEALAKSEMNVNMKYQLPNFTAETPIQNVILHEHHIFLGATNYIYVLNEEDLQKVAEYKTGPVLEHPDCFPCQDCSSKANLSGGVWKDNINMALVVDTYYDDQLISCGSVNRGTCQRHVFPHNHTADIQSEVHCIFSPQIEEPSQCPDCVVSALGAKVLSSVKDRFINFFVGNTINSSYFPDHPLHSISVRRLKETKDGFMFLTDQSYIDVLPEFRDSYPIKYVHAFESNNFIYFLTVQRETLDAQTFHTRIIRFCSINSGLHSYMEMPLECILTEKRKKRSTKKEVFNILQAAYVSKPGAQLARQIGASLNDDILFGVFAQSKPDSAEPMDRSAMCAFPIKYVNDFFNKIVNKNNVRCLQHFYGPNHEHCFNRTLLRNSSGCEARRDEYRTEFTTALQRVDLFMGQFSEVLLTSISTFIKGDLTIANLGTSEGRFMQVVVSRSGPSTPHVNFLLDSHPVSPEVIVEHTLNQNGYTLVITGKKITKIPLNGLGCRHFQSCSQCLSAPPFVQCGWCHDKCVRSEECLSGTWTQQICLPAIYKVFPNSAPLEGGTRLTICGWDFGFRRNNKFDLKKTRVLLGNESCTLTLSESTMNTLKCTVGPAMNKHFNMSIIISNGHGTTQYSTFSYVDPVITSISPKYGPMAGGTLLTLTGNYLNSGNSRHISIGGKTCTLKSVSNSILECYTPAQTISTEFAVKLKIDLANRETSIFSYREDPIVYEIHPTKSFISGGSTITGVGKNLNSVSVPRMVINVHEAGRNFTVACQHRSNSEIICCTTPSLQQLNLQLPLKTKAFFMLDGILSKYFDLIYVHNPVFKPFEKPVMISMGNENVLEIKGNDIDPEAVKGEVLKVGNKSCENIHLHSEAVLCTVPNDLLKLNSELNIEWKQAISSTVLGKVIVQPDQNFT

VEGF R2 (VEGF receptor) = molecular target: T8, VEGF R2 (VEGF receptor) (human, UniProt P35968 20-764); test: ELISA
T8 construct: bought; construct not described
T8 sequence (P35968 20-764 limits assumed): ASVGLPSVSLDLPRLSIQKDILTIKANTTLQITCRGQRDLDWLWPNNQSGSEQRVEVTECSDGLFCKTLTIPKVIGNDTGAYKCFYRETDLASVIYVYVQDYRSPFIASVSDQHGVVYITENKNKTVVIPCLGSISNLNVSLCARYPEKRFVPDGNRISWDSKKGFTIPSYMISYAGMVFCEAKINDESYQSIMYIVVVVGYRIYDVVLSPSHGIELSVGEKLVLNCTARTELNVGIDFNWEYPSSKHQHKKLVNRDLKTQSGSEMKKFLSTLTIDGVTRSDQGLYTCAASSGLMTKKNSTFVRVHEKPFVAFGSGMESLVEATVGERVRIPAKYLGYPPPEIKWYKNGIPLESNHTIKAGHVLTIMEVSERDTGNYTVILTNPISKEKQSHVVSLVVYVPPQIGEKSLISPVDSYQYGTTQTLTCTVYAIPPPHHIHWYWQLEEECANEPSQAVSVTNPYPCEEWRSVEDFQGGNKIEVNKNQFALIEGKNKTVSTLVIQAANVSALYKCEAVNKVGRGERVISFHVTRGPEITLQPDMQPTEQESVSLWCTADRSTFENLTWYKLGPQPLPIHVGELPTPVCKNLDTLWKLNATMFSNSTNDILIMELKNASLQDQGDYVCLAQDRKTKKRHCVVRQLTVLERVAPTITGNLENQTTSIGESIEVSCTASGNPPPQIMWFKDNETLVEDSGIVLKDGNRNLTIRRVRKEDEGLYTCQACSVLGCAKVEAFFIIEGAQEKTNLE

recombinant human HER2 = molecular target: T9, recombinant human HER2 (human, UniProt P04626 23-652, limits assumed); test: ELISA
T9 construct: bought

B1: BPC1402 (bispecific antibody, human IgG1, kappa)
heavy: not shown
light: QIVLSQSPAILSASPGEKVTMTCRASSSVSYIHWFQQKPGSSPKPWIYATSNLASGVPVRFSGSGSGTSYSLTISRVEAEDAATYYCQQWTSNPPTFGGGTKLEIKRTVAAPSVFIFPPSDEQLKSGTASVVCLLNNFYPREAKVQWKVDNALQSGNSQESVTEQDSKDSTYSLSSTLTLSKADYEKHKVYACEVTHQGLSSPVTKSFNRGEC
notes: also called RituxanH-GS-DOM474
B1 showed a Kd [1] of 0.358 nM, a koff [1] of 0.000305 s⁻¹ and a kon [1] of 852000 M⁻¹ s⁻¹. B1: binds [2].

B2: PascoH-TVAAPS-474 GS removed (bispecific antibody, human IgG1, kappa)
heavy: not shown
light: DIVLTQSPSSLSASVGDRVTITCKASQSVDYDGDSYMNWYQQKPGKAPKLLIYAASNLESGIPSRFSGSGSGTDFTFTISSLQPEDIATYYCQQSNEDPPTFGQGTKVEIKRTVAAPSVFIFPPSDEQLKSGTASVVCLLNNFYPREAKVQWKVDNALQSGNSQESVTEQDSKDSTYSLSSTLTLSKADYEKHKVYACEVTHQGLSSPVTKSFNRGEC
Binder B2 has a Kd [3] of 0.268 nM, an IC50 [4] of 7.41 nM and a Kd [5] of 26.7 nM. It also gave a koff [5] of 0.0129 s⁻¹, a kon [5] of 483000 M⁻¹ s⁻¹ and a Kd [6] of 0.029 nM. The koff [6] was 5.3e-05 s⁻¹, the kon [6] was 1.83e+06 M⁻¹ s⁻¹ and the Kd [7] was 0.011 nM. For the same binder, the Kd [8] was 0.305 nM, the “Mean ND50 (TF-1)” value [9] was 3.02 nM and the “Mean ND50 (TF-1)” value [10] was 47.9 nM. The “Mean ND50 (TF-1)” value [11] was 1.36 nM and the “Mean ND50 (TF-1)” value [12] was 2.11 nM.

B3: BPC1617 (bispecific antibody, human IgG2, kappa)
heavy: QVTLRESGPALVKPTQTLTLTCTFSGFSLSTSGMGVSWIRQPPGKGLEWLAHIYWDDDKRYNPSLKSRLTISKDTSRNQVVLTMTNMDPVDTATYYCARRETVFYWYFDVWGRGTLVTVSSASTKGPSVFPLAPCSRSTSESTAALGCLVKDYFPEPVTVSWNSGALTSGVHTFPAVLQSSGLYSLSSVVTVPSSNFGTQTYTCNVDHKPSNTKVDKTVERKCCVECPPCPAPPVAGPSVFLFPPKPKDTLMISRTPEVTCVVVDVSHEDPEVQFNWYVDGVEVHNAKTKPREEQFNSTFRVVSVLTVVHQDWLNGKEYKCKVSNKGLPAPIEKTISKTKGQPREPQVYTLPPSREEMTKNQVSLTCLVKGFYPSDIAVEWESNGQPENNYKTTPPMLDSDGSFFLYSKLTVDKSRWQQGNVFSCSVMHEALHNHYTQKSLSLSPGKGSGVQLLESGGGLVQPGGSLRLSCAASGFTFAWYDMGWVRQAPGKGLEWVSSIDWHGEVTYYADSVKGRFTISRDNSKNTLYLQMNSLRAEDTAVYYCATAEDEPGYDYWGQGTLVTVSS
light: DIVLTQSPSSLSASVGDRVTITCKASQSVDYDGDSYMNWYQQKPGKAPKLLIYAASNLESGIPSRFSGSGSGTDFTFTISSLQPEDIATYYCQQSNEDPPTFGQGTKVEIKRTVAAPSVFIFPPSDEQLKSGTASVVCLLNNFYPREAKVQWKVDNALQSGNSQESVTEQDSKDSTYSLSSTLTLSKADYEKHKVYACEVTHQGLSSPVTKSFNRGEC
B3: binds [13]; binds [14].

B4: BPC1618 (bispecific antibody, human IgG4, kappa)
heavy: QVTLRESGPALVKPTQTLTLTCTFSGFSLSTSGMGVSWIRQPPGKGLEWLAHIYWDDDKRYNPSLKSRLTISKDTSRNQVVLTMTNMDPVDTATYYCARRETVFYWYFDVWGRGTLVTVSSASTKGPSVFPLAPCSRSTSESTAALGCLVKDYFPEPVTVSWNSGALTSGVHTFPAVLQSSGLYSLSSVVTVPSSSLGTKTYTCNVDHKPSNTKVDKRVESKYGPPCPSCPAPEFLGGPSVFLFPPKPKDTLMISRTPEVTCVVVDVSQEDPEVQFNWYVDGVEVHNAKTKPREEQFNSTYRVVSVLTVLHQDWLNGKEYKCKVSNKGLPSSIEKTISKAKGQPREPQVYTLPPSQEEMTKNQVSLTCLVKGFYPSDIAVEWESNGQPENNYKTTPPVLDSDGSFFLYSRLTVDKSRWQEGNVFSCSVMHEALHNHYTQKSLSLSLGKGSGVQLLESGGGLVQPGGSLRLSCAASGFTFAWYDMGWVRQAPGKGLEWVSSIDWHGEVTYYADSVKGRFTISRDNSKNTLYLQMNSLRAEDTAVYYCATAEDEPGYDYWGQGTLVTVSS
light: DIVLTQSPSSLSASVGDRVTITCKASQSVDYDGDSYMNWYQQKPGKAPKLLIYAASNLESGIPSRFSGSGSGTDFTFTISSLQPEDIATYYCQQSNEDPPTFGQGTKVEIKRTVAAPSVFIFPPSDEQLKSGTASVVCLLNNFYPREAKVQWKVDNALQSGNSQESVTEQDSKDSTYSLSSTLTLSKADYEKHKVYACEVTHQGLSSPVTKSFNRGEC
B4: binds [13]; binds [14].

B5: BPC1619 (bispecific antibody, human IgG4 S228P, kappa)
heavy: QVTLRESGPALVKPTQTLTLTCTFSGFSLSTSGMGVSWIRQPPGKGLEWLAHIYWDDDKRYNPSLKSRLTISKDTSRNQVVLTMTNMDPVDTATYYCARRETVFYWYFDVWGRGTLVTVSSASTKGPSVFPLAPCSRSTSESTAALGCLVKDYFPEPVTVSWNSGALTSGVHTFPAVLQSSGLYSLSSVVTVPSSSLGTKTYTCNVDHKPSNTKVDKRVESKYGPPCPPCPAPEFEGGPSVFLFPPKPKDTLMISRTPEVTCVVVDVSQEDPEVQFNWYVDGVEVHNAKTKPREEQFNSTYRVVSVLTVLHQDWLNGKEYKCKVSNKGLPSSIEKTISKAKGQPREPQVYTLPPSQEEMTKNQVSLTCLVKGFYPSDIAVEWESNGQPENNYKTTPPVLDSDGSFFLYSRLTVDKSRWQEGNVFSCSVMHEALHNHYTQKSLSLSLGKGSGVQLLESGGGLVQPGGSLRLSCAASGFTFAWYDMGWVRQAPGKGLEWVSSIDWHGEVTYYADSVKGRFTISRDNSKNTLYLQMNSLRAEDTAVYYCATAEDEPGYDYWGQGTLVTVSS
light: DIVLTQSPSSLSASVGDRVTITCKASQSVDYDGDSYMNWYQQKPGKAPKLLIYAASNLESGIPSRFSGSGSGTDFTFTISSLQPEDIATYYCQQSNEDPPTFGQGTKVEIKRTVAAPSVFIFPPSDEQLKSGTASVVCLLNNFYPREAKVQWKVDNALQSGNSQESVTEQDSKDSTYSLSSTLTLSKADYEKHKVYACEVTHQGLSSPVTKSFNRGEC
B5: binds [13]; binds [14].

B6: BPC1019 (antibody, human IgG1, kappa)
heavy: not shown
chain: not shown
light: DIQMTQSPSSLSASVGDRVTITCKSSQSLLYTSSQKNYLAWYQQKPGKAPKLLIYWASTRESGVPSRFSGSGSGTDFTLTISSLQPEDFATYYCQQYYAYPWTFGQGTKVEIKRTVAAPSVFIFPPSDEQLKSGTASVVCLLNNFYPREAKVQWKVDNALQSGNSQESVTEQDSKDSTYSLSSTLTLSKADYEKHKVYACEVTHQGLSSPVTKSFNRGEC
notes: monovalent antibody; also called anti cMET 5D5v2 knob-into-hole
B6: no binding (recombinant human VEGF); binds [15].

B7: BPC1404 (bispecific antibody, human IgG1, kappa)
heavy: not shown
light: QIVLSQSPAILSASPGEKVTMTCRASSSVSYIHWFQQKPGSSPKPWIYATSNLASGVPVRFSGSGSGTSYSLTISRVEAEDAATYYCQQWTSNPPTFGGGTKLEIKRTVAAPSVFIFPPSDEQLKSGTASVVCLLNNFYPREAKVQWKVDNALQSGNSQESVTEQDSKDSTYSLSSTLTLSKADYEKHKVYACEVTHQGLSSPVTKSFNRGECGSGVQLLESGGGLVQPGGSLRLSCAASGFTFAWYDMGWVRQAPGKGLEWVSSIDWHGEVTYYADSVKGRFTISRDNSKNTLYLQMNSLRAEDTAVYYCATAEDEPGYDYWGQGTLVTVSS
notes: also called RituxanL-GS-DOM474
With B7 the Kd [1] was 1.02 nM, the koff [1] was 0.000508 s⁻¹ and the kon [1] was 499000 M⁻¹ s⁻¹. B7: binds [2].

B8: anti-IGF-1R antibody H0L0 (antibody, human IgG1, kappa, V domains shown)
VH: QVQLVQSGAEVKKPGASVKVSCKASGYTFTDYYMNWVRQAPGQGLEWMGNINPNNGGTNYNQKFKDRVTMTTDTSTSTAYMELRSLRSDDTAVYYCARWILYYGRSKWYFDVWGRGTLVTVSS
VL: DIVMTQSPLSLPVTPGEPASISCRSSQSIVQSNGDTYLEWYLQKPGQSPQLLIYRVSNRFSGVPDRFSGSGSGTDFTLKISRVEAEDVGVYYCFQGSHVPYTFGQGTKLEIKR
notes: also called HOLO
B8: no binding (recombinant human VEGF); no binding (VEGF R2 (VEGF receptor)); no binding (recombinant human HER2).

B9: BPC1801 (bispecific antibody, human IgG1, kappa)
heavy: not shown
light: DIVMTQSPLSLPVTPGEPASISCRSSQSIVQSNGDTYLEWYLQKPGQSPQLLIYRVSNRFSGVPDRFSGSGSGTDFTLKISRVEAEDVGVYYCFQGSHVPYTFGQGTKLEIKRTVAAPSVFIFPPSDEQLKSGTASVVCLLNNFYPREAKVQWKVDNALQSGNSQESVTEQDSKDSTYSLSSTLTLSKADYEKHKVYACEVTHQGLSSPVTKSFNRGEC
notes: also called antiIGF1R Heavy Chain-GS-CT01 adnectin
B9: binds (VEGF R2 (VEGF receptor)).

B10: BPC1802 (bispecific antibody, human IgG1, kappa)
heavy: not shown
light: DIVMTQSPLSLPVTPGEPASISCRSSQSIVQSNGDTYLEWYLQKPGQSPQLLIYRVSNRFSGVPDRFSGSGSGTDFTLKISRVEAEDVGVYYCFQGSHVPYTFGQGTKLEIKRTVAAPSVFIFPPSDEQLKSGTASVVCLLNNFYPREAKVQWKVDNALQSGNSQESVTEQDSKDSTYSLSSTLTLSKADYEKHKVYACEVTHQGLSSPVTKSFNRGEC
B10: binds (VEGF R2 (VEGF receptor)).

B11: BPC1020 (antibody, V domains shown)
VH: EVQLVESGGGLVQPGGSLRLSCAASGYTFTSYWLHWVRQAPGKGLEWVGMIDPSNSDTRFNPNFKDRFTISADTSKNTAYLQMNSLRAEDTAVYYCATYRSYVTPLDYWGQGTLVTVSS
VL: DIQMTQSPSSLSASVGDRVTITCKSSQSLLYTSSQKNYLAWYQQKPGKAPKLLIYWASTRESGVPSRFSGSGSGTDFTLTISSLQPEDFATYYCQQYYAYPWTFGQGTKVEIKR
B11: no binding (recombinant human VEGF); binds [15].
